Measured values from patent US8802630B2, “Method of treating brain injury” (Buddhist Tzu Chi General Hospital, priority 2011, dated 2014).
Where no end group is shown, it is not given here.

Conditions: rat, in vivo

fluorescence-labeled UCN: UCN labeled with the Alexa Fluor 488 dye using Microscale Protein Labeling Kit (DNPSLSIDLTFHLLRTLLELARTQSQRERAEQNRIIFDSV; ends and bridges not checked; also: Alexa Fluor 488 label, site not given here; UniProt P55089 83-122, looked up)
penetration from lateral ventricle into striatal parenchyma: co-localized in cell nuclei of the striatum on the ipsilateral
